{"source": "paper PMC6089408", "biological_target": "Arabidopsis thaliana HAPLESS 2 ectodomain (AtHAP2e; aa 25-494) (Arabidopsis thaliana) (UniProt F4JP36)", "assay": "crystal structure; AtHAP2e set to crystallize as a monomer; hanging drop, 293 K, 100 mM sodium citrate pH 4.5, 200 mM zinc acetate; space group P6_(3)"}
{"substance": "Arabidopsis thaliana HAPLESS 2 ectodomain (AtHAP2e; aa 25-494) (from UniProt F4JP36 25-494) (domain or fragment)", "values": [{"measurement": "stoichiometry N", "value": 3}]}
